Measurements from PMC5430821.

Target: rat synaptotagmin 2 fused to the DCTM exosome-sorting peptide, displayed on exosomes (rat) (UniProt P29101)
Test: SPR; […] (1 µM); […], single-cycle kinetics, 1:1 model, […]; 25 °C, HBS pH 7.4, 150 mM NaCl

Sequence of UniProt P29101 (P29101 whole entry, the tested form may be a part): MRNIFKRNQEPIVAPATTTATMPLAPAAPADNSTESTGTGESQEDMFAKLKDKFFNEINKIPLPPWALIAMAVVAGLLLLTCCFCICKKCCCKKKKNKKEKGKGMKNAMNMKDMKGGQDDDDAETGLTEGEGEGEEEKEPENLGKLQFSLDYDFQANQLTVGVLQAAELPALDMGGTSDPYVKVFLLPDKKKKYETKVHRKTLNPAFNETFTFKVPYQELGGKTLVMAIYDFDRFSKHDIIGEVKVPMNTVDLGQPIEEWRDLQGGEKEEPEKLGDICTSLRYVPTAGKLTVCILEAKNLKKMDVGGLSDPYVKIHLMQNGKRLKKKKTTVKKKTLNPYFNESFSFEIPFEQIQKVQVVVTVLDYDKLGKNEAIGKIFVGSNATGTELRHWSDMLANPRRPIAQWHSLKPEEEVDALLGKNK

| Substance | Kd | koff | kon |
| --- | --- | --- | --- |
| BoNT/B (B1 Okra strain) neurotoxin with non-toxic accessory proteins (complex) | 1.4 nM | 0.00041 s⁻¹ | 310000 M⁻¹ s⁻¹ |
| BoNT/B holotoxin (B1), pure botulinum neurotoxin type B (natural protein) | 0.6 nM | 0.00013 s⁻¹ | 230000 M⁻¹ s⁻¹ |
